Measured values as given in paper PMC8464039 (Nucleic Acids Research, 2021).

What was measured:
cryo-EM structure = molecular target: the molecule itself; experiment: cryo-EM structure
CsyRE3 = molecular target: T1, CsyRE3 (Pseudomonas aeruginosa, UniProt Q02ML9;Q02MM0;Q02MM1;Q02MM2 1-434;1-327;1-342;1-187, R207E;R219E;R258E); experiment: EMSA
T1 sequence 1: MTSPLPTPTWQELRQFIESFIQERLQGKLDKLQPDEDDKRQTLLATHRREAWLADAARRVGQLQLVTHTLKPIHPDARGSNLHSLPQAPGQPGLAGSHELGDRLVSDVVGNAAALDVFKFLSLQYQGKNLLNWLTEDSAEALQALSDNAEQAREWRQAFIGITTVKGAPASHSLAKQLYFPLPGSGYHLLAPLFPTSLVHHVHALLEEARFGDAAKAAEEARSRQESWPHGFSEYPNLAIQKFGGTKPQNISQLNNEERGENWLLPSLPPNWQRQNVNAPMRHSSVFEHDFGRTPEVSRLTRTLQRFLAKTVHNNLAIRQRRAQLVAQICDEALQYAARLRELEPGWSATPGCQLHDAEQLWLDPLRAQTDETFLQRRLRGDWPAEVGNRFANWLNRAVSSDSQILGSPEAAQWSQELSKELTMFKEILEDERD
T1 sequence 2: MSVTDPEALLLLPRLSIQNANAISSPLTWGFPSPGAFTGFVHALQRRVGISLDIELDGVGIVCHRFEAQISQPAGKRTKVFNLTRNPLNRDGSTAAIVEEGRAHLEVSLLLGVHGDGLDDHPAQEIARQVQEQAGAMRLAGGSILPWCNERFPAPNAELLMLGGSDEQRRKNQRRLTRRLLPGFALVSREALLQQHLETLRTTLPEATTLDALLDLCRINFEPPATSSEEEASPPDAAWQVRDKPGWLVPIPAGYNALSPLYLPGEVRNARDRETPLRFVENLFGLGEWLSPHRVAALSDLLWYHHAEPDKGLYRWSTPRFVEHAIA
T1 sequence 3: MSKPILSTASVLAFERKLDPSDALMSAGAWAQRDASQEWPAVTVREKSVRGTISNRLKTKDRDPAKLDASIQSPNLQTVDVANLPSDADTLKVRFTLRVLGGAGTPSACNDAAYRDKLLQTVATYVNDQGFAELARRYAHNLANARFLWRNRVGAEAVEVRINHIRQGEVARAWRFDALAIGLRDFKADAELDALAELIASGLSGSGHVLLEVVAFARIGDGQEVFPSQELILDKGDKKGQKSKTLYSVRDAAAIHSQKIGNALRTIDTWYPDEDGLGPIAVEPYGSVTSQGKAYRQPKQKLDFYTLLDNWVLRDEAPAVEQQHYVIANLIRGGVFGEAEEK
T1 sequence 4: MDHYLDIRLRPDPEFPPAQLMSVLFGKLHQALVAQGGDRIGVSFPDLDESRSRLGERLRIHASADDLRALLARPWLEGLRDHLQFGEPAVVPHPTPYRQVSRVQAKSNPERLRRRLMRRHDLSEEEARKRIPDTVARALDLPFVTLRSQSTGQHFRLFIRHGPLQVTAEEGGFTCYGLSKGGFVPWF

[1] = molecular target: T2, Csy complex (crRNA-guided surveillance complex) (Pseudomonas aeruginosa, UniProt Q02ML9;Q02MM0;Q02MM1;Q02MM2 1-434;1-327;1-342;1-187); experiment: EMSA
T2 sequence 1: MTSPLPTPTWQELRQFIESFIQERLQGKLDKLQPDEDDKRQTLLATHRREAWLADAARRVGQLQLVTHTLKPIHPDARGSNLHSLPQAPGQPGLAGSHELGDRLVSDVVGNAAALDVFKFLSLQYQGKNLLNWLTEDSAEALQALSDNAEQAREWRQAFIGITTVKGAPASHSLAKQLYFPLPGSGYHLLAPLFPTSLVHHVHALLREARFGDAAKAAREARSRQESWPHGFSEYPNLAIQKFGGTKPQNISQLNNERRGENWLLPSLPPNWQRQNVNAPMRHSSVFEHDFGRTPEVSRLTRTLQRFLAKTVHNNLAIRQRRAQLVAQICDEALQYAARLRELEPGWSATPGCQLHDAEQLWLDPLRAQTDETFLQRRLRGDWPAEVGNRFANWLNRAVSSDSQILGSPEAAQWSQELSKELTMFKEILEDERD
T2 sequence 2: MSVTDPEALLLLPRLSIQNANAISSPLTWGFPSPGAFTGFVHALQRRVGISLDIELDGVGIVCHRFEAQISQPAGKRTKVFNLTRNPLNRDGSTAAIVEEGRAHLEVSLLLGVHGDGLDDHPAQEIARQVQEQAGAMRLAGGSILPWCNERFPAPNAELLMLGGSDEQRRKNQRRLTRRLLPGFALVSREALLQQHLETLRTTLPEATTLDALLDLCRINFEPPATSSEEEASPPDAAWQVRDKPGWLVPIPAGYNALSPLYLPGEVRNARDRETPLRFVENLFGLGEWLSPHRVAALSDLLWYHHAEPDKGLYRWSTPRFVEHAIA
T2 sequence 3: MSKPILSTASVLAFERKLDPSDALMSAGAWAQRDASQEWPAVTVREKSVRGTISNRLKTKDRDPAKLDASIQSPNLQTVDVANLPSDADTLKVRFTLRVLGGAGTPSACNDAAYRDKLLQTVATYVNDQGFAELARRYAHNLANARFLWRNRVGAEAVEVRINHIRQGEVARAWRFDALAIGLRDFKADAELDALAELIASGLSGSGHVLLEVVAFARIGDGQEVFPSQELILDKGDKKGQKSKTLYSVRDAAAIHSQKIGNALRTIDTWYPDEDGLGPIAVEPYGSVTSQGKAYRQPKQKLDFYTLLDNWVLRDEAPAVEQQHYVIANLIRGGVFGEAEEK
T2 sequence 4: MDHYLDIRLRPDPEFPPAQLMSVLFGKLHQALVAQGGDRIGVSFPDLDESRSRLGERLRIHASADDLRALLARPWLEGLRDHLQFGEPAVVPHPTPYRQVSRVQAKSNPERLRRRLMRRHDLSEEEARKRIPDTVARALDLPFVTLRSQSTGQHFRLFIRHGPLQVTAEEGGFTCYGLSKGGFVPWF

[2] = molecular target: T2, Csy complex (crRNA-guided surveillance …); experiment: competition

Row | Binder | stoichiometry N (cryo-EM structure) | binding result (CsyRE3) | binding result [1] | binding result [2]
1 | Cas7f subunit of the Csy complex (natural protein, P. aeruginosa) MSKPILSTASVLAFERKLDPSDALMSAGAWAQRDASQEWPAVTVREKSVRGTISNRLKTKDRDPAKLDASIQSPNLQTVDVANLPSDADTLKVRFTLRVLGGAGTPSACNDAAYRDKLLQTVATYVNDQGFAELARRYAHNLANARFLWRNRVGAEAVEVRINHIRQGEVARAWRFDALAIGLRDFKADAELDALAELIASGLSGSGHVLLEVVAFARIGDGQEVFPSQELILDKGDKKGQKSKTLYSVRDAAAIHSQKIGNALRTIDTWYPDEDGLGPIAVEPYGSVTSQGKAYRQPKQKLDFYTLLDNWVLRDEAPAVEQQHYVIANLIRGGVFGEAEEK | 6 |  |  | 
2 | dsDNASP (specific target, 54 bp) (dsDNA) DNA 1: GGAAGCCATCCAGGTAGACGCGGACATCAAGCCCGCCGTGAAGGTGCAGCTGCT DNA 2: AGCAGCTGCACCTTCACGGCGGGCTTGATGTCCGCGTCTACCTGGATGGCTTCC |  | no binding | binds | 
3 | dsDNANS (non-specific, 54 bp) (dsDNA) DNA 1: GAGCGACTACGACATGAGCGCGCAGCTAAGACCGCCCGTAGATGCGTCGAGCGT DNA 2: ACGCTCGACGCATCTACGGGCGGTCTTAGCTGCGCGCTCATGTCGTAGTCGCTC |  | no binding | no binding | 
4 | dsDNANS unlabeled (dsDNA) DNA 1: GAGCGACTACGACATGAGCGCGCAGCTAAGACCGCCCGTAGATGCGTCGAGCGT DNA 2: ACGCTCGACGCATCTACGGGCGGTCTTAGCTGCGCGCTCATGTCGTAGTCGCTC |  |  |  | no binding
